Measured values as given in US7935680B2, “Methods for modulating the axonal growth of central nervous system neurons” (Children's Medical Center Corporation, priority 1997, dated 2011).

Columns and labels:
[1] = test system: rat retinal ganglion cells; experiment: Cell survival of purified rat retinal ganglion cells; type: cell-based; conditions: CNTF, rat RGCs
Procedure: Goldfish (Comet Variety, Mt. Parnell Fisheries, Mt. Parnell Pa.), 6-10 cm in length, were dark-adapted and their retinas dissected. Retinas were incubated with papain (20 μg/ml), activated with cysteine (2.8 mM) for 30 minutes at room temperature, then dissociated by gentle trituration. Repeated cycles of trituration and sedimentation yielded cultures nearly homogeneous in ganglion cells, which are readily identified by their oval shape, phase-bright appearance, size (diameter 15 μm), and extension of only 1 or 2 neurites of uniform caliber; these criteria have been verified by retrograde labeling (see Schwartz & Agranoff, Brain Res. 206: 331-343, 1981 and Schwalb et al., J. Neuroscience 15: 5514-5625, 1995, the contents of which are incorporated herein by reference). […]
In a typical experiment, samples were plated in quadruplicate in randomized positions of a 24-well plate and the code was concealed to ensure that growth was evaluated in a blinded fashion. […] Growth and survival were assessed after 6 days for all ganglion cells in 25 consecutive fields of each well using phase contrast microscopy at 400× magnification (c. 150 ganglion cells counted per well). […] After the completion of counting, the code was broken, the data tabulated, and means and standard errors were calculated for the 4 replicate wells of each sample using Cricket Graph (CA Associates, Islandia, N.Y.). […]

[2] = test system: rat retinal ganglion cells; experiment: Axonal outgrowth from purified rat retinal ganglion cells; type: cell-based; conditions: CNTF, rat RGCs
Procedure: Goldfish (Comet Variety, Mt. Parnell Fisheries, Mt. Parnell Pa.), 6-10 cm in length, were dark-adapted and their retinas dissected. Retinas were incubated with papain (20 μg/ml), activated with cysteine (2.8 mM) for 30 minutes at room temperature, then dissociated by gentle trituration. Repeated cycles of trituration and sedimentation yielded cultures nearly homogeneous in ganglion cells, which are readily identified by their oval shape, phase-bright appearance, size (diameter 15 μm), and extension of only 1 or 2 neurites of uniform caliber; these criteria have been verified by retrograde labeling (see Schwartz & Agranoff, Brain Res. 206: 331-343, 1981 and Schwalb et al., J. Neuroscience 15: 5514-5625, 1995, the contents of which are incorporated herein by reference). Low density cultures were achieved by plating c. 5×10^3 cells/well into poly L-lysine coated, 24-well culture dishes (Costar, Cambridge, Mass.). Cells were maintained at 21° C. in serum free, defined media containing insulin, selenium, transferrin, bovine serum albumin, catalase, superoxide dismutase, hormones, and vitamins in Eagle's L-15 media as described in Schwalb et al., 1995, the contents of which are incorporated herein by reference). Dissociated cultures of purified rat retinal ganglion cells were prepared by immunopanning as described in Barres et al., Neuron, 1: 791-803, 1988, the contents of which are incorporated herein by reference). In brief, retinas from postnatal day 8 Sparague-Dawley rats were dissociated using papain activated with cysteine. Macrophages were removed by incubation with an anti-rat macrophage antibody (Accurate) followed by immunopanning with an anti-rabbit 1gG antibody. Ganglion cells were isolated by immunopanning with an anti-Thy-1 antibody, then dislodged with trypsin for use in low-density cultures. Rat retinal ganglion cells were maintained at 37° C. in a CO2 incubator using the same medium described above except for the presence of 30 mM bicarbonate.
In a typical experiment, samples were plated in quadruplicate in randomized positions of a 24-well plate and the code was concealed to ensure that growth was evaluated in a blinded fashion. Each experiment contained 4 wells of a negative control (media plus supplements only) and 4 wells of a positive control (a standardized AF-1 sample of known activity). Growth and survival were assessed after 6 days for all ganglion cells in 25 consecutive fields of each well using phase contrast microscopy at 400× magnification (c. 150 ganglion cells counted per well). Extension of a process 5 cell diameters in length was the criterion for growth, since it clearly distinguishes stimulated cells from negative controls (see Schwalb et al., 1995). After the completion of counting, the code was broken, the data tabulated, and means and standard errors were calculated for the 4 replicate wells of each sample using Cricket Graph (CA Associates, Islandia, N.Y.). Data were normalized by subtracting the growth in the negative controls (usually 4-5%) and dividing by the net growth in the positive controls. In the most favorable experiments, more than 50% of retinal ganglion cells (RGCs) exposed to AF-1 extended axons 5 cell diameters in length after 6 days. Group comparisons were based upon pairwise, 2-tailed Student's t-tests. Several independent experiments were performed for most samples, as noted in the figure legends. In some cases, cell viability was assessed with the dye 5,6-carboxyfluorescein diacetate. […]

B1: CNTF: Ciliary neurotrophic factor (protein, UniProt P26441 1-200, looked up)
Ciliary neurotrophic factor: MAFTEHSPLTPHRRDLCSRSIWLARKIRSDLTALTESYVKHQGLNKNINLDSADGMPVASTDQWSELTEAERLQENLQAYRTFHVLLARLLEDQQVHFTPTEGDFHQAIHTLLLQVAAFAYQIEELMILLEYKIPRNEADGMPINVGDGGLFEKKLWGLKVLQELSQWTVRSIHDLRFISSHQTGIPARGSHYIANNKKM
[1]
  cell survival: enhanced cell survival
[2]
  outgrowth compared with inosine: much larger increase in outgrowth
